Data on 23 molecules can be found in patent US20220195015A1 (published 2022).

For orientation: EC50 means the midpoint of the concentration-response curve. The low end stands for greater potency, the high end for weaker potency.

B1: C550 (antibody, V domains shown)
VH: EVQLVQSGAEVKKPGESLKISCKGSGYRFTNYWIGWVRQMPGKGLEWMGIIYPGDSDTRYSPSFQGQVTISADKSITTAYLQWSSLKASDTAMYYCARLSDRWYSPFDPWGQGTLVTVSS
VL: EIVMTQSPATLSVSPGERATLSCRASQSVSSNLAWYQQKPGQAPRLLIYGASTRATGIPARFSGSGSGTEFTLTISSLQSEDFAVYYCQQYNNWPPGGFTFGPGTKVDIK
B2: C532 (antibody, V domains shown)
VH: EVQLVQSGAEVKKPGESLKISCKGSGYRFTNYWIGWVRQMPGKGLEWIGNIFPGDSDSRYSPSFQGQVTISVDMSITTAYLHWSSLKASDTAIYYCARLSERWYSPFDSWGQGTLVTVSS
VL: EIVMTQSPATLSVSPGERATLSCRASQSVSSNLAWYQQKPGQAPRLLIYGASTRATGFPARFSGSGSGTEFTLTISSLQSEDFAVYFCQQYNNWPPGGFTFGPGTKVDIK
B3: C552 (antibody, V domains shown)
VH: QVQLVESGGGVVQPGRSLRLSCAASGFTFSSYAMHWVRQAPGKGLEWVALISYDGSNKHYADSVKGRFTISRDNSKNTLYLQMNSLRAEDTAVYYCARAGTTNSDYFDYWGQGTLVTVSS
VL: SYELTQPPSVSVAPGKTARITCGGNNIGSKSVHWYQQKPGQAPVLVIYYDTDRPSGIPERFSGSNSGNTATLTISRVEAGDEADYYCQVWDSSSALWVFGGGTKLTVL
B4: C553 (antibody, V domains shown)
VH: QVQLVESGGGVVQPGRSLRLSCAASGFTFSNYEIHWVRQAPGKGLEWVAGISYDGSTKYYADSVKGRFTISRDNSKNTLYLQMNSLRPEDTAVFYCARAGTTNSDYFDYWGQGTLVTVSS
VL: SYELTQPPSVSVAPGMTARITCGGNTIGSKSVHWYQQKAGQAPVLVIYYDSDRPSGIPERFSGSNSGNTATLTISRVEAGDEADYYCQVWDSSSVLWVFGGGTKLTVL
B5: C537 (antibody, V domains shown)
VH: QLQLQESGPGLVKPSETLSLTCTVSGGAISSRNYHWGWIRQPPGKGLEWIGSIYYSGSTYYSPSLKSRVTISVDTSKNQFSLRLSSVTAADTAVYYCARLETSGWYTEDVFDIWGQGTMVTVSS
VL: DIQMTQSPSSLSASVGDRVTITCRASQSISSYLNWYQQKPGKAPKLLIYAASSLQSGVPSRFSGSGSGTDFTLTISSLLPEDFATYYCQRSYSAMYTFGQGTKLEIK
B6: C535 (antibody, V domains shown)
VH: EVQLVESGGALVQPGRSLRLSCAASGFTFDDYAMHWVRQAPGKGLEWVSSISWNGVSIGYADSVRGRFTISRDNAKNSLYLQMNSLKIGDTAFYYCARGLDGSSSASPDSWGQGTLVTVSS
VL: DIQMTQSPSSVSASVGDRVTITCRASQGIGSWLAWYQQKPGKAPKLLIYLASSLQSGVPSRFSGSGSGTYFTLTISGLQPEDFATYYCQQGNSFPLTFGGGTKVEIK
B7: C555 (antibody, V domains shown)
VH: EVQLVESGGGLVKPGGSLRLSCAASGLTFSTTWMSWVRQAPGKGLEWVGRIKSKGDGGTTDFAGPVKGRFSISRDDSKNTLYLHMNSLKTEDTAVYYCTTDDPGSYYYGMDVWGQGTTVTVSS
VL: QTVVTQEPSLTVSPGGTVTLTCASSTGAVTSGHYPYWFQQKPGQAPRTLIYATSNKHSWTPARFSGSLLGGKAALTLSGAQPEDEADYYCLLSYSGARVFGGGTKLTVL
B8: C556 (antibody, V domains shown)
VH: QVQLVQSGAEVKKPGASVKVSCKASGYTFTYYYMHWVRQAPGQGLEWMGIINPSGGSTSYAQKFQGRVTMTRDTSTSTVYMELSSLRSEDTAVYYCARPLLPGETGSLNRLDYWGQGTLVTVSS
VL: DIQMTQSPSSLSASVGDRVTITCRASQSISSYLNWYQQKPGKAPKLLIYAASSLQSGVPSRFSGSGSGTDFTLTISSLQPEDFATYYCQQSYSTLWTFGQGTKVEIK
B9: C538 (antibody, V domains shown)
VH: QLQLQESGPGLVKPSETLSLTCTVSGGSISSSSYYWAWIRQPPGKGLEWIGNIYYSGITYYSPSLKSRVTISVDTSKNQFSLKLRSVTAADTAVYYCARQHRYGSGSSELLWGQGTLVTVSS
VL: QSALTQPPSASGSPGQSVTISCTGTSSDVGSYNYVSWYQQHPGKAPKLMIYEVTKRPSGVPDRFSGSKSGNTASLTVSGLQADDEADYYCSSYAGSSNLIFGGGTKLTVL
B10: C548 (antibody, V domains shown)
VH: QVQLVQSGAEVKKPGSSVKVSCKASGGTFSSYAISWVRQAPGQGLEWMGGIIPIFGTANYAQKFQGRVTITADESTSTAYMELSSLRSEDTAVYYCARREAYGPRDYYYYYGMDVWGQGTTVTVSS
VL: QSALTQPPSASASLGASVTLTCTLSSGYSNYKVDWYQQRPGKGPRFVMRVGTGGIVGSKGDGIPDRFSVLGSGLNRYLTIKNIQEEDESDYHCGADQGSGSNFVGVFGGGTKLTVL
B11: C558 (antibody, V domains shown)
VH: EVQLVQSGAEVKKPGESLKISCKVSGYTFTNYWIGWVRQMPGKGLEWMGIIYPGDSDTRYSPSFQGQVTISADKSIITAYLQWSSLKASDTAMYYCARVPSSSDYGDYGGFEYWGQGTLVTVSS
VL: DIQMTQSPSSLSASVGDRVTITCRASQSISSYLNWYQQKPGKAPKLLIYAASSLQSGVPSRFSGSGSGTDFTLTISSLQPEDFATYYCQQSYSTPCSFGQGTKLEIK
B12: C559 (antibody, V domains shown)
VH: EVQLVQSGAEVKKPGESLKISCKVSGYTFTNYWIGWVRQMPGKGLEWMGIIFPGDSDTRYSPSFQGQVTISADRSITTAYLQWRSLKASDTAMYYCARVPSSSDYGDYGGFEYWGQGTLVTVSS
VL: DIQMTQSPSSLSASVGDRVTITCRASQTITIYLNWYQQKPGKAPKLLIYAASSLQSGVPSRFSGSGSGTDFTLTISSLQPEDFATYYCQQSYSTPCSFGQGTKLEIK
B13: C536 (antibody, V domains shown)
VH: QVQLVESGGGLVKPGRSLRLSCTVSGFTFGAYAMSWFRQAPGKGLEWVGFIRSKTYGGTTEYAASLKGRFTISRDDSKSIAFLQMNSLKTEDTAVYFCSRGGYYDGSPYYWNRPDAFDIWGLGTMVTVS
VL: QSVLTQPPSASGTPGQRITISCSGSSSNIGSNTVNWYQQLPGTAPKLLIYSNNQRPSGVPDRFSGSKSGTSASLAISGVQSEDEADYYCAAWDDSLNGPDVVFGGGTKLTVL
B14: C213 (antibody, V domains shown)
VH: EVQLVESGGGLVKPGGSLRLSCAASGFTFSSYSMNWVRQAPGKGLEWVSSISSSSSYIYYADSVKGRFTISRDNAKNSLYLQMNSLRAEDTAVYYCARVQVGARGWVDYWGQGTLVTVSS
VL: NFMLTQPHSVSESPGKTVTISCTRSSGSIASNYVQWYQQRPGSAPTTVIYEDNERPSGVPDRFSGSIDSSSNSASLTISGLKTEDEADYYCQSYDRINWVFGGGTKLTVL
B15: C545 (antibody, V domains shown)
VH: EVQLLESGGGLVKPGGSLRLSCAASGFTFSDYSMTWVRQAPGKGLEWVSFISSSSTYIYYADSVKGRFTISRDNAKSSLYLQMNRLRAEDTAVYYCTRVQVGARGWADYWGQGTLVTVSS
VL: NFMLTQPLSVSESPGKTVTISCTRSSGSIASNYVQWYQQRPGGAPTTVIYEDTQRPSGVPDRFSGSIDSSSNSASLTISGLKTEDEADYYCQSCDTINWVFGGGTKLTVV
B16: C217 (antibody, V domains shown)
VH: EVQLVESGGGLVKPGGSLRLSCAASGFTFSSYSMNWVRQAPGKGLEWVSFISSRSSYIYYADSVKGRFTISRDNAKNSLYLQMNSLRAEDTAVYYCARVQVGARGWVDYWGQGTLVTVSS
VL: NFMLTQPHSVSESPGKTVTISCTRSSGSIASNYVQWYQQRPGSAPTTVIYEDNQRPSGVPDRFSGSIDSSSNSASLTISGLKTEDEADYYCQSYDSINWVFGGGTKLTVL
B17: C534 (antibody, V domains shown)
VH: QVQLVQSGAEVKKPGSSVRVSCKASGGTFSRNVISWVRQAPGQGLEWMGGIIPMFATANYAQKFQGRVTITADESSSTAYMELSSLRSEDTAVYYCAREDFILVSAPIRENSYYYYGMDVWGQGTTVTVSS
VL: EIVLTQSPGTLSLSPGERATLSCRASQSVSSNYLAWYQQKPGQAPRLLIYDASSRATGIPDRFSGSGSGTDFTLTISRLEPEDFAVYYCQQYGGSPRTFGQGTKVEIK
B18: C533 (antibody, V domains shown)
VH: EVQLVESGGSLVKPGGSLRLSCVASGLTFNHAWMSWVRQAPGKGLEWVGRIKSKIDGGTTDYAAPVKGRFTISRDDSKSTQYLQMNSLKTEDTAVYYCTTDCFWRLGGTTCYEHDAFDVWGQGTMVTVSS
VL: DIQMTQSPSSLSASVGDRVTITCRASQAIATFLNWYQQKPGKAPKLLIYAASSLQSGVPSRFSGSGSGTDFTLTISNLQPEDFATYYCQQSYNSLHFGGGTKVEIK
B19: C549 (antibody, V domains shown)
VH: QVQLVQSGAEVKKPGSSVKVSCKASGGTFSTSAISWVRQAPGQGLEWMGGIIPFFGTPNYAQKFQGRVTIIADESTTTAYMELSGLRFEDSAVYYCARREPYGPRDYYYFFGMDVWGPGTTVTVSS
VL: QSALTQPPFASASLGASVTLTCTLSSDYSYYKVDWYQQRPGKGPRFVIRVGPGGIVGSKGDGFPDRFSVLGSGLNRSLTINNIQEEDEGDYHCGADEGSGGTFVGVFGGGTKLTV
B20: C560 (antibody, V domains shown)
VH: EVQLVESGGGLVQPGRSLRLSCAASGFTFDDYAMHWVRQAPGKGLEWVSGVSWNSGTIGYADSVKGRFTISRDNAKNSLYLQMNSLRAEDTALYYCAKIADIVRAYDFWSGQHFDAFDIWGQGTMVTVSS
VL: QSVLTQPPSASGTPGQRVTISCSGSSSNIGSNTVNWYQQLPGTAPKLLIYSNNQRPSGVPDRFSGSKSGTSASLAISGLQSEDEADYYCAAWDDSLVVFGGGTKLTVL
B21: C561 (antibody, V domains shown)
VH: EVQLVESGGGLVQPGRSLRLSCAASGFTFDDYAIHWVRQAPGKGLEWVSGVSWNSGTIGYADSVKGRFFISRDNAKNSLYLQMNSLRAEDTAWYYCAKIADLVGAYDFRSGQHFAAFDVWGQGTMVTVSS
VL: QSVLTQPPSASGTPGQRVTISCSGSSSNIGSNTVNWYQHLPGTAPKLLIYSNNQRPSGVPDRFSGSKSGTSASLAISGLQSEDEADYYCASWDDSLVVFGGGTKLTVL
B22: C564 (antibody, V domains shown)
VH: EVQLLESGGGLVQPGTSLRLSCAASGFTFSSYAMSWVRQAPGKGLEWVSAISSSGGSTYYADSVKGRFTISRDNSKNTLYLHMNSLRAEDTAVYYCATERIAVAGTRMYNWFDPWGQGTLVTVSS
VL: DIQMTQSPSSLSASVGDRVTLTCRASQSISSYLNWYQQKPGKAPNLLIYAASSLQSGVPSRFSGSGSGTDFTLTISSLQPEDFATYYCQQSYSAPPWTFGQGTKVEIK
B23: C546 (antibody, V domains shown)
VH: EVQLLESGGGLVHPGGSLRLSCAASGFTFSTYAMHWVRQAPGKGLEWVSAISGSGTGTFYADSVKGRFSISRDNSKNTLYLQMNSLRAEDTAVYYCATERIAVSDTRMYNWFDPWGQGTLVTVSS
VL: DIQMTQSPSSLSASVGDRVTLTCRASQGISTYLNWYQQKPGKAPNLLIYAASSLQSGVPSRFSGSGSGTDFTLTISSLQPEDFATYYCQQSYSAPPWTFGQGTKVEIK

The target of the assay is SARS-CoV-2 spike receptor binding domain (RBD), wild type (SARS-CoV-2, UniProt P0DTC2 319-539). The assay can be described thus: ELISA, RBD protein coated, mAb titrated. For orientation: An ELISA detects its analyte on a solid surface through an enzyme-linked reagent.
Turning to B1, the EC50 came to 2.56 ng/mL.
B2 returned a concentration for a half-maximal effect (EC50) of 1 ng/mL.
Regarding B3, the EC50 came to 1.08 ng/mL.
B4 registered an EC50 of 1.19 ng/mL.
Under B5 stands 41.9 ng/mL; under B6, 2.46 ng/mL.
Under B7 stands 2.88 ng/mL.
B8 registered an EC50 of 1.36 ng/mL.
Molecule B9 displayed an EC50 of 3.94 ng/mL.
In turn, B10 had an EC50 of 1.72 ng/mL. This EC50 lies about 2.3-fold lower than the previous one.
B11 had an EC50 of 2.41 ng/mL.
B12 came in with an EC50 of 2.89 ng/mL.
For the molecule B13, the EC50 amounted to 1.88 ng/mL. Compared with the last molecule, the EC50 is about 1.5-fold lower.
As for B14, the EC50 was found to be 2.02 ng/mL.
Under B15 stands 3.68 ng/mL; under B16, 2.28 ng/mL; under B17, 4.85 ng/mL.
B18: the 50% effective concentration (EC50) came to 1.61 ng/mL.
Under B19 stands 1.76 ng/mL.
The molecule B20 showed a 50% effective concentration (EC50) of 1.6 ng/mL.
As to B21, a half-maximal response (EC50) required 1.53 ng/mL.
For the molecule B22, the EC50 stood at 14.6 ng/mL. This EC50 lies about 9.5-fold higher than the previous one.
Molecule B23 returned an EC50 of 3.57 ng/mL.
